Reference: IntAct's records for PubMed 23572552

B1: TBC1 domain family member 22B (Homo sapiens), Q9NU19 (parent)
chain: MAAENSKQFWKRSAKLPGSIQPVYGAQHPPLDPRLTKNFIKERSKVNTVPLKNKKASSFHEFARNTSDAWDIGDDEEEDFSSPSFQTLNSKVALATAAQVLENHSKLRVKPERSQSTTSDVPANYKVIKSSSDAQLSRNSSDTCLRNPLHKQQSLPLRPIIPLVARISDQNASGAPPMTVREKTRLEKFRQLLSSQNTDLDELRKCSWPGVPREVRPITWRLLSGYLPANTERRKLTLQRKREEYFGFIEQYYDSRNEEHHQDTYRQIHIDIPRTNPLIPLFQQPLVQEIFERILFIWAIRHPASGYVQGINDLVTPFFVVFLSEYVEEDVENFDVTNLSQDMLRSIEADSFWCMSKLLDGIQDNYTFAQPGIQKKVKALEELVSRIDEQVHNHFRRYEVEYLQFAFRWMNNLLMRELPLRCTIRLWDTYQSEPEGFSHFHLYVCAAFLIKWRKEILDEEDFQGLLMLLQNLPTIHWGNEEIGLLLAEAYRLKYMFADAPNHYRR
B2: Golgi resident protein GCP60 (Homo sapiens), Q9H3P7 (parent)
chain: MAAVLNAERLEVSVDGLTLSPDPEERPGAEGAPLLPPPLPPPSPPGSGRGPGASGEQPEPGEAAAGGAAEEARRLEQRWGFGLEELYGLALRFFKEKDGKAFHPTYEEKLKLVALHKQVLMGPYNPDTCPEVGFFDVLGNDRRREWAALGNMSKEDAMVEFVKLLNRCCHLFSTYVASHKIEKEEQEKKRKEEEERRRREEEERERLQKEEEKRRREEEERLRREEEERRRIEEERLRLEQQKQQIMAALNSQTAVQFQQYAAQQYPGNYEQQQILIRQLQEQHYQQYMQQLYQVQLAQQQAALQKQQEVVVAGSSLPTSSKVNATVPSNMMSVNGQAKTHTDSSEKELEPEAAEEALENGPKESLPVIAAPSMWTRPQIKDFKEKIQQDADSVITVGRGEVVTVRVPTHEEGSYLFWEFATDNYDIGFGVYFEWTDSPNTAVSVHVSESSDDDEEEEENIGCEEKAKKNANKPLLDEIVPVYRRDCHEEVYAGSHQYPGRGVYLLKFDNSYSLWRSKSVYYRVYYTR
partner: B1 chain
B3: Golgi resident protein GCP60 (Homo sapiens), Q9H3P7 (parent)
chain: B2 chain
partner: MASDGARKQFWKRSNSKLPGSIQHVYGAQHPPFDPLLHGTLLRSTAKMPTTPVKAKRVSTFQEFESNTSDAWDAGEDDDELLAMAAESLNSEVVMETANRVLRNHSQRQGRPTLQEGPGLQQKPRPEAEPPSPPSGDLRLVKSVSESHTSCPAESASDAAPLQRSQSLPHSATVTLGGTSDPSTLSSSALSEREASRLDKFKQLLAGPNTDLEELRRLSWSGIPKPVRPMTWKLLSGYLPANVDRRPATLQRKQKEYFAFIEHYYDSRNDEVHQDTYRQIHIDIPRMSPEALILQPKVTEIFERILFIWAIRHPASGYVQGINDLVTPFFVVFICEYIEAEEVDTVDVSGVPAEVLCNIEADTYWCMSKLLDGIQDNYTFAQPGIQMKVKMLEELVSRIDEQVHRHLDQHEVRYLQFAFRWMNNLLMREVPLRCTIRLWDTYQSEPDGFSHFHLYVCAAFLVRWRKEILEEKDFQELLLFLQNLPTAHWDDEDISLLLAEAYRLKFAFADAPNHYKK
B4: TBC1 domain family member 22A (Homo sapiens), Q8WUA7 (parent)
chain: B3 partner
B5: Golgi resident protein GCP60 (Homo sapiens), Q9H3P7 (parent)
chain: B2 chain

Variants of: B1
Settings: with gcp60_human ACBD3, Q9H3P7

Variant	effect of a mutation on the interaction
V100A;L101A	disrupting interaction strength
L94A;T96A	with no effect
E102A;N103A;H104A	with no effect
L88A;N89A;S90A	decreasing interaction strength
S58E	with no effect
S114E	with no effect
T143E	with no effect
Q99A	with no effect
K91A;V92A	with no effect
S140E;S141E	with no effect
S168E	with no effect
S116E;T117E;T118E;S119E	with no effect

Variants of: B2
Settings: with tb22b_human TBC1D22B

Variant	effect of a mutation on the interaction
S511A	decreasing interaction strength
S511A;Y512A;S513A	with no effect
F258A	decreasing interaction strength
Y288A	disrupting interaction strength
Q245A	with no effect
Q257A	decreasing interaction strength
Q260A	with no effect
L276A	decreasing interaction strength
Q264A;Q265A;Y266A	with no effect
Q253A	with no effect
E282A;Q283A;H284A;Y285A	disrupting interaction strength
I246A	decreasing interaction strength
T254A	with no effect
H284A	disrupting interaction strength
Q286A	with no effect
Y261A	decreasing interaction strength
V256A;Q257A;F258A	disrupting interaction strength
S414A;Y415A;L416A	with no effect
F417A;W418A;E419A;F420A	with no effect
Q244A	with no effect
G494A;S495A;H496A	with no effect
I275A	with no effect
Q287A	with no effect
K243A	with no effect
Q259A	with no effect
Y285A	decreasing interaction strength
F433A;E434A;W435A	with no effect
S344A;S345A	with no effect

Variants of: B2
Settings: with tb22b_human TBC1D22B
Remark: another data set of the same source

Variant	effect of a mutation on the interaction
Q259A;Q260A;Y261A	with no effect
P267A;G268A;N269A	disrupting interaction strength

Variants of: B3
Settings: with tb22a_human TBC1D22A

Variant	effect of a mutation on the interaction
R196A;R197A;R198A;R199A	with no effect
L164A;L165A;N166A;R167A	with no effect
E184A;E185A;Q186A;E187A	with no effect
C168A;C169A;H170A	with no effect
Q274A;I275A;L276A;I277A	disrupting interaction strength
R236A;L237A;R238A;L239A	with no effect
E192A;E193A;E194A;E195A	with no effect
K188A;K189A;R190A;K191A	with no effect
E240A;Q241A;Q242A	with no effect
R221A;L222A;R223A;R224A	with no effect
P267A;G268A;N269A	disrupting interaction strength
Q259A;Q260A;Y261A	decreasing interaction strength
I246A;M247A	disrupting interaction strength
R204A;E205A;R206A;L207A;Q208A	with no effect
E225A;E226A;E227A;E228A	with no effect
K213A;R214A;R215A;R216A	with no effect
K209A;E210A;E211A;E212A	with no effect
I246A;M247A;Q253A;T254A	disrupting interaction strength
E200A;E201A;E202A;E203A	with no effect
Y270A;E271A;Q272A;Q273A	with no effect

Variants of: B3
Settings: with tb22a_human TBC1D22A
Remark: another data set of the same source

Variant	effect of a mutation on the interaction
Q264A;Q265A;Y266A	with no effect
S511A;Y512A;S513A	with no effect
S344A;S345A	with no effect
F417A;W418A;E419A;F420A	with no effect
S414A;Y415A;L416A	with no effect
V256A;Q257A;F258A	disrupting interaction strength
G494A;S495A;H496A	with no effect
E282A;Q283A;H284A;Y285A	disrupting interaction strength
F433A;E434A;W435A	with no effect

Variants of: B4
Settings: with gcp60_human ACBD3, Q9H3P7

Variant	effect of a mutation on the interaction
V93A;V94A;M95A;E96A	decreasing interaction strength
E96A;T97A	with no effect
N99A;R100A	with no effect
N90A;S91A;E92A	with no effect
E92A;V93A	with no effect
R103A;N104A;H105A	with no effect
V101A;L102A	disrupting interaction strength

Variants of: B4
Settings: with gcp60_human ACBD3, Q9H3P7
Remark: another data set of the same source

Variant	effect of a mutation on the interaction
Q163A;R164A;S165A;Q166A	with no effect
E87A;S88A;L89A	with no effect
Q320A	with no effect
S132A	decreasing interaction strength
Q107A;R108A;Q109A	with no effect
S165E	with no effect
S165A	with no effect
S165A;S167A	with no effect
L81A;L82A	with no effect
S167E	with no effect
T149E;S150E	decreasing interaction strength
S165E;S167E	with no effect

Variants of: B5
Settings: with polg_aiva8 polg

Variant	effect of a mutation on the interaction
S511A	with no effect
F433A	disrupting interaction strength
S511A;Y512A;S513A	disrupting interaction strength
E434A	with no effect
F417A;W418A;E419A;F420A	disrupting interaction strength
S513A	with no effect
S344A;S345A	with no effect
E282A;Q283A;H284A;Y285A	with no effect
V256A;Q257A;F258A	with no effect
Q264A;Q265A;Y266A	with no effect
S414A;Y415A;L416A	decreasing interaction strength
Y512A	decreasing interaction strength
W435A	with no effect
G494A;S495A;H496A	disrupting interaction strength
F433A;E434A;W435A	disrupting interaction strength
H496A	with no effect

Variants of: B5
Settings: with polg_hkv1 polg

Variant	effect of a mutation on the interaction
K507A;F508A;D509A;N510A	disrupting interaction strength
S511A;Y512A;S513A	disrupting interaction strength
F417A;W418A;E419A;F420A	disrupting interaction strength
S344A;S345A	with no effect
E282A;Q283A;H284A;Y285A	with no effect
V256A;Q257A;F258A	with no effect
Q264A;Q265A;Y266A	with no effect
S414A;Y415A;L416A	disrupting interaction strength
G494A;S495A;H496A	disrupting interaction strength
F433A;E434A;W435A	disrupting interaction strength
